The target of assay [1] is GST-…. Put plainly: blot of mutant ligand proteins probed with 32P-labelled GST-WW-YAP.
For assay [2], the target named is GST-… fusion protein (mouse). Put plainly: Western ligand blot, reference GST-WBP-1 (1-74).

“GST-WW-YAP fusion protein (WW domain of human YAP in pGEX-2TK)” came in with a fold reduction of binding against wild-type PY in assay [1] of 2 fold. The same substance returned a signal relative to the N-terminal construct in assay [2] of 80%.

Values taken from patent publication US6034212.
